Patent US20110038874A1 (SHANGHAI AOSAIERSI BIOTECH, published 2011)
Values belong to the molecule of their own block, whether it stands above or below them.

Columns and labels:
[1] = molecular target: VEGFR2 expressed on HUVEC cells (human) (UniProt P35968); assay: cell-based or functional assay
[2] = molecular target: T1, mouse VEGFR2 (mouse, UniProt P35918 20-762, limits assumed); assay: not described ("a further study")
T1 construct: Assay and construct of the 'further study' are not described
T1 sequence (P35918 20-762 limits assumed): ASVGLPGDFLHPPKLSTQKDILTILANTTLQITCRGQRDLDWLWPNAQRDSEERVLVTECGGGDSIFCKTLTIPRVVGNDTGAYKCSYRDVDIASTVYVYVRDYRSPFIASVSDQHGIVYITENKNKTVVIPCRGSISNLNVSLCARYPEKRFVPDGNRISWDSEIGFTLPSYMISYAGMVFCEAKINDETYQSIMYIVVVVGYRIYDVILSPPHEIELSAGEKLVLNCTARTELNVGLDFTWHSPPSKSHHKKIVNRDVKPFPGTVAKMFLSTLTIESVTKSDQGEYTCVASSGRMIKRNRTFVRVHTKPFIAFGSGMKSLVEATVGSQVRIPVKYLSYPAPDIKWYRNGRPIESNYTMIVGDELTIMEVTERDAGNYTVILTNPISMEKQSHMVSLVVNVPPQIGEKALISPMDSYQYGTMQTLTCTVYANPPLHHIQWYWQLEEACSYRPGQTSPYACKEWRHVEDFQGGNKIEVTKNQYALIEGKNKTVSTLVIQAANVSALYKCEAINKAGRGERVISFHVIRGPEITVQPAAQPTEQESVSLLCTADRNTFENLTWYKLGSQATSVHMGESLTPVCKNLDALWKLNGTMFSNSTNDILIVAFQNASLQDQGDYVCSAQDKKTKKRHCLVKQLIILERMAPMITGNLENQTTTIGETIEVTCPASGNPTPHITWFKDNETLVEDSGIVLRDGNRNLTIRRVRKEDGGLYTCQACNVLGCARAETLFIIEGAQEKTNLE

Sequence of VEGFR2 expressed on HUVEC cells (human) (P35968 20-1356): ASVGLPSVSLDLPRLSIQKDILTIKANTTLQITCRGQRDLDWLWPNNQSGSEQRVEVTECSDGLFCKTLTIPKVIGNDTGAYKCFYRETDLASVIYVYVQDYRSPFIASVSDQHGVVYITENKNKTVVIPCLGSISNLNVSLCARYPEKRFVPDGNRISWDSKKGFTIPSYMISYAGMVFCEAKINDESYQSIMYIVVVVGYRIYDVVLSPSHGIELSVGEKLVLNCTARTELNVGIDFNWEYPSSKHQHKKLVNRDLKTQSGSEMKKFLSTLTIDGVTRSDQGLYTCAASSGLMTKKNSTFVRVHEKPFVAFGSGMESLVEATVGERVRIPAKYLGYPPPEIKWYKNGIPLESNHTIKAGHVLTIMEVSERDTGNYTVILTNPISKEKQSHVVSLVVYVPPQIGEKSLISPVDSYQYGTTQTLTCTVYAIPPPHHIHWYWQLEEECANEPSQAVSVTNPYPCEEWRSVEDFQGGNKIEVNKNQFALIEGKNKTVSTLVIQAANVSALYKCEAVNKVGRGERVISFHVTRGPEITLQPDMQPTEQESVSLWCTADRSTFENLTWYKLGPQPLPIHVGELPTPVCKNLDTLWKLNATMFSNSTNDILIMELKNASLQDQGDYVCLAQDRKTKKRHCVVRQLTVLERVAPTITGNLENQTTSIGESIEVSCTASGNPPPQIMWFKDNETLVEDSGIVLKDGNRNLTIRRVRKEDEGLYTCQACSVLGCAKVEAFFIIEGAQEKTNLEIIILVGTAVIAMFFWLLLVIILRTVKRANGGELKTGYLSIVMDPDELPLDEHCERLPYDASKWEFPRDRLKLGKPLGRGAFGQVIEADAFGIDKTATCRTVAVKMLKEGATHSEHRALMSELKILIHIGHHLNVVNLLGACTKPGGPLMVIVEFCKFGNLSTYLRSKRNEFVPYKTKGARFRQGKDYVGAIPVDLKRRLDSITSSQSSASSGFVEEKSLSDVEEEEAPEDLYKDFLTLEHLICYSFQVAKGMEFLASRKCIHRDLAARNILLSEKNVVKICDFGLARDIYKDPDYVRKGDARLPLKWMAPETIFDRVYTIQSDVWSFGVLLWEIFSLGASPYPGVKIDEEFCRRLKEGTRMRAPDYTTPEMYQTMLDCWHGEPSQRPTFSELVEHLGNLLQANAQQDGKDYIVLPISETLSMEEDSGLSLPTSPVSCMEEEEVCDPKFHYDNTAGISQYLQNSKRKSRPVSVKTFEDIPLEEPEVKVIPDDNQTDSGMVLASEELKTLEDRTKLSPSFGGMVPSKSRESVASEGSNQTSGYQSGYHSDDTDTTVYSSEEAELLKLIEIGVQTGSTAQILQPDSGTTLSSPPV

HUVEC proliferation (VEGF-induced, cell count after 48 hours) [1]: 1 µg/mL
Molecule: normal IgG (antibody)

binding result [2]: no binding
B1: AC88 anti-VEGFR2 monoclonal antibody (antibody, human IgG1, kappa, V domains shown)
VH: EVQLVESGGGLVKPGGSLRLSCAASGFTFSSYSMTWVRQAPGKGLEWVSSISSSSSYIYYADSVKGRFTISRDNAKNSLYLQMNSLRAEDTAVYYCAKATSGYMDVWGQGTTVTVSS
VL: DIQMTQSPSSLSASVGDRVTITCQASQDINNYLNWYQQKPGKAPKLLIYDASNLETGVPSRFSGSGSGTDFTLTISSLESEDIATYYCQQHVNYPLTFGGGTKVEIKR
notes: Fully human IgG1 kappa from a hybridoma; also called AC88 antibody; anti-VEGFR2 antibody
